# B1: EMSA methylated 60 bp (specific DNA) (dsDNA)
# DNA 1: GCCGCGGATCCTTCACAAGACGATTACCGGCGCTGAAAGACCAGCATATGCAATTTGACT
# DNA 2: AGTCAAATTGCATATGCTGGTCTTTCAGCGCCGGTAATCGTCTTGTGAAGGATCCGCGGC
# modifications: 5-methyl-dC at position 28 of strand 1 and position 31 of strand 2 (both strands)
# Experiments:
# [1] = target: SauUSI (Staphylococcus aureus); test: SEC-MALS; 1 mg/ml SauUSI injected on Superdex 200 in 50 mM Tris-HCl pH 8, 50 mM NaCl, 1 mM DTT
# [2] = target: T1, SauUSI (Staphylococcus aureus, UniProt Q2FVC3 1-953); test: EMSA; 250 nM DNA; shift first detected at 0.1 uM SauUSI (0.05-1.6 uM tested); Protein and DNA incubated 20 min on ice; 5% native PAGE, ethidium bromide stain; binding buffer, salt and pH not stated; details: protein: recombinant; tags: His-tag (HisTrap purified); chain copies: 2; blunt
# T1 sequence: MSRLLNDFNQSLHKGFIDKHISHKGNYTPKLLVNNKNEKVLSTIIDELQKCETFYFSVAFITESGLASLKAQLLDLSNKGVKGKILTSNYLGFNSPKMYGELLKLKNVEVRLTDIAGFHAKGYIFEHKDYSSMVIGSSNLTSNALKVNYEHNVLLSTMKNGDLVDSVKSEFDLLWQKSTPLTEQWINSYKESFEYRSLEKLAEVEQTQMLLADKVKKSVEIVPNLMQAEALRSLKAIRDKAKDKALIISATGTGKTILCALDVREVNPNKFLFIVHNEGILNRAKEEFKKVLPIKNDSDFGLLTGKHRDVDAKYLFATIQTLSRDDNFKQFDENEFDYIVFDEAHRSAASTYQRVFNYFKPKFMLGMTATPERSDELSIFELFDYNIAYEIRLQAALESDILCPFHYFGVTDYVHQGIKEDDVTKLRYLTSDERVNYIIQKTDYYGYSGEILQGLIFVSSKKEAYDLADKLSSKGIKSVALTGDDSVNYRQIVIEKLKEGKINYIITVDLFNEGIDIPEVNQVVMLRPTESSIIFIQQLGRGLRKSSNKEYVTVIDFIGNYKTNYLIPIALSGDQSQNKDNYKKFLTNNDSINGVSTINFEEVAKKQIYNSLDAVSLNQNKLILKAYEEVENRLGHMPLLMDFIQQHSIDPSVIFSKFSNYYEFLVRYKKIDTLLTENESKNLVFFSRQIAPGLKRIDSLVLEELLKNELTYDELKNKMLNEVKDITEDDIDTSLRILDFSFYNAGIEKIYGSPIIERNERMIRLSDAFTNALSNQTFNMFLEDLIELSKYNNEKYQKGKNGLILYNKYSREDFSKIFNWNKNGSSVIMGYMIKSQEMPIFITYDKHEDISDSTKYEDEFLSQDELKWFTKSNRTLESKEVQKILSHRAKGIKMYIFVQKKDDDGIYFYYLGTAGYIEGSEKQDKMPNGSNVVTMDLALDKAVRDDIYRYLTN
Molecule,stoichiometry N [1],binding result [2]
SauUSI (enzyme),2,–
B1,–,binds

# From article PMC7913695, “Mechanism of DNA cleavage by the endonuclease SauUSI: a major barrier to horizontal gene transfer and antibiotic resistance in Staphylococcus aureus”
